Data published in the nanobody polyreactivity screen of Harvey et al. (2022).

Test: yeast display, Sf9 membrane polyspecificity reagent, FACS + sequencing; frameworks hold sequencing errors
In short: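 Nanobodies came from a synthetic yeast display library in Saccharomyces cerevisiae BJ5465, induced with galactose for 36–48 hours and stained for 1 hour at 4 °C with 10% biotinylated, detergent-solubilized Sf9 membrane reagent. Cells were enriched on streptavidin microbeads and then FACS-sorted, with low and high (top ~1%) gates set on anti-HA fluorescence for expression and streptavidin fluorescence for reagent binding. Each polyreactivity label reflects the gate a clone came from. Genes were amplified by colony PCR, sequenced by MiSeq 2 × 250 and filtered by CDR length.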

| Sequence | polyreactivity (PSR sort gate) |
| --- | --- |
| QVQLVESGGGLVQAGRSHRLTCAASGSTDSNAMGWYRQAPGKERELVAAISGTGSRTYYADSVKGRFTISRDNAKNSVYLEMNSLKPEDTAVYYCAASPDVSFRRFSLVVSGDYWGQGNQVTVSS | high polyreactivity |
| QVQLVESGGGLVQAGRSLRISRAASGSIFYKNVMGWYRQAPGKERELVAAITSGGSTYYADSVKGRFTISRDNAKNTVYFQMNSVYPEYSAVYYWAAGFGRNPVSRYYWGQGTQVTVSS | high polyreactivity |
| QVQLVESGGGLVQAGRSLRLICAASGSIFRKYAMCWYRQAPVKESELVAAINYSGGNTYYADSVKGRFTISRDNSKNTVYLQMNSLKPEDTAVYFCAADSVRHYWWAYYYWGQVTQVTVSS | low polyreactivity |
| QVQLVESGGGLVQAGRSLRLSCAASGFTFSWYTMGWYRQAPGKERELVAAISSSGGNTYYADSVKGRFTISRDNAKNTVYLQMNSLKPEDNAVYYCVARFGSYGYYYWGQGTQVTVSS | high polyreactivity |
| QVQLVESGGGLVQAGRSLRLSCAASGFTLTPYAMGWYRQAPGKERELVARISDSGDSTYYADSVKGRFTMSRDNAKNTVYLQMNRLKPEDTAVYYCATDWNAGIDYYRFYADEYNYWGQGSQVTVSS | low polyreactivity |
| QVQLVESGGGLVQAGRSLRLSCAASGINFAGYAKGWYRQAPGKERELVAAISRGGSTYYADSVKGRFTISRDNAKNTVYFQMNSLIPEDTAVYYCNTYYQQGYFTYTGWNYNYWGQGTQVTVST | high polyreactivity |
| QVQLVESGGGLVQAGRSLRLSCAASGITFSRNDMGWYRQAPGKEMQLVAAISRSGGRTYYADSVKGRFTLSRDNAKNTVYLQMNCLNPEDTAVYYCNRDIGGTSVLDDYWGQGTQVTVSS | low polyreactivity |
| QVQLVESGGGLVQAGRSLRLSCAASGITFTGYALGWSRQATGKERELVAAISKRGARTYYADSVKGRFTISRDNAKNTVYLQMNSLKPEDTAVYYCAADSTAQDIAGLYYWGQGTQVTVSS | high polyreactivity |
| QVQLVESGGGLVQAGRSLRLSCAASGLTFLYYAMGWYRHAPAKEMEFVAANSNRDGSTYYADSVKGRFTISRDNAKNTVYLQMNSLKPEDTAGYYCYADGYVDYCFLKYRFEFDYWGQGTQVTVSS | low polyreactivity |
| QVQLVESGGGLVQAGRSLRLSCAASGLTFVNYTMGCYRQAPGKEREFVAAITSSGGSSTYYADSVKGRFTHSRDNAKNTVYLQMNSLYPEDTAVYYCAAGFTLYVDIVILTVNTVDYWGQGTQVTVSS | low polyreactivity |
| QVQLVESGGGLVQAGRSLRLSCAASGNTFWFYGMGWYRQAPGKVRELVAAITSGGSTDYADSVKGRFTISRENAKNTVSLQMNSLKPEDTAVYYCAAEPVAYYGSSYGYWGQGTQVTVSS | low polyreactivity |
| QVQLVESGGGLVQAGRSLRLSCAASGRIFTPNAMGWYRQAPGKERELVAAISSSGRTSYADSLKGRFTNTSDNAKITVYLQMNSLKPEDTAVYYCNATWRWTRRGYDYWGQGTQVTVSS | low polyreactivity |
| QVQLVESGGGLVQAGRSLRLSCAASGRTFDEYAMGWYRQAPGKERELVAAISARGGRTYYADSVKGRFTISRDNAKNTVYLQMNSLKPEDTAVYYCAAAGYITRYDRYDYWGQGTQVTVSS | high polyreactivity |
| QVQLVESGGGLVQAGRSLRLSCAASGRTFYHYAMGWYRQAPGKERELVAAIDWSTASTYYADSVKGRFTISRDNAKNTVYLQMNSLIQEDTAVYYCATDSAILINFVLYDYWGQGTQVTVSS | low polyreactivity |
| QVQLVESGGGLVQAGRSLRLSCAASGRTFYYYAMVWNRQAPGKERELVAAISWRSGSTYYADSVKGRFTISRDNAKNTLYLQMNSLKPEDTAVYYCATSVRFYWFADGYWGQGTQVTVSS | high polyreactivity |
| QVQLVESGGGLVQAGRSLRLSCAASGSIFYKYARGWYRQAPGKERELVAAISRSRGSTYYADSVKGRFTISRDNAKNTVYLQMNSLKPEDTAVYYCNAYYRYSFSELDKYGYWGQGTQVTVSS | high polyreactivity |
| QVQLVESGGGLVQAGRSLRLSCAASGSTLTRNAMGWYRQAPGKERELVAAITQRGGSTYYADSVKGRFTISRDNAKNTVYLQMNSLKPEDTAVYYCAAAYRGYARHDYWGQGTQVNVSS | high polyreactivity |
| QVQLVESGGGLVQAGRSLRLSCPASGSTFYTNHMGWYRQAPGKERELVAAITSAGNTNYADSVKGRFTISRDNAKNTVYLQMNSLKPEDTAVYYYYYYQYDYWGQGTQVTVSS | low polyreactivity |
| QVQLVESGGGLVQAGSSLRLSCAASGFTFNRYAMGWYRQAPGKERELVAAISWSGGSTYYADSVKGRFTISRDNAKNTVYLQMNSLKPEDTEVYYCSDATAYYRYRGGYDYWGQGTQVTVSS | high polyreactivity |
| QVQLVESGGGLVQAGVSLLLSCAASGSTLYYNAMGWYRQAPGKERELVAAITSGGSTSYADSVKGRFTISRDNAKHTVYLQRNSLKPEDTAVYYCAAVFYRRFDYWGQGTQVTVSS | low polyreactivity |
| QVQLVESGGGLVQAGVSLRLRCASSGSTFAYNAMGWYRQAPGKESELVAAISTSGGYTYYADSVKGRFTISRDNAKNTVYLQMNSLKPEDTAVYYCYAVGRSKHGYSRSYYWGQGTQVTVSS | high polyreactivity |
| QVQLVESGGGLVQAGVSLRLSCAASGFIFRTYAMGWYRQAPGKEREVVAAITGRGGTTYYADSVKGRFTISRDNAKNTVYLQMNSLKPEDTAVYYCAARGRVSVNTQRYAAYNYLGQGTQVTVSS | high polyreactivity |

| Sequence | polyreactivity (PSR sort gate) |
| --- | --- |
| QVQLVESGGGLVQAGVSLRLSCAASGFIYDHNAMGWYRQAPGKERELVAAITRSGGSTYYAYSVKGRFTISRDNAKNTVYLQMNSLKQEDTAVYYCNADAYGTPEFTSYAVRYDYWGQGTQVTVSS | low polyreactivity |
| QVQLVESGGGLVQAGVSLRLSCAASGFTFSRNAMGWYRQAPGKERELVAAISRSGGSTYYAYSVKGRFTISRDNAKNTVYLQINSLKQEDTAVYYCATSCTPNYFVTSDYWGQGTQVTVSS | high polyreactivity |
| QVQLVESGGGLVQAGVSLRLSCAASGRIFGPYAMGWYRQAPGKERELVAAITWRGDRTYYADSVKGRFTISRDNAKNTVYLQMNSLKPEDTAVYYCAARGGRSEYDYWGLGTQVTVSS | low polyreactivity |
| QVQLVESGGGLVQAGVSLRLSCAASGRIFYPYVMGWYRQAPGKERELVAAISDSTGSTYYADSVKGRFTISRDNAKNTVYLQMNSLKPEDTAVYYCAAGWFYATYWRFYYWGQGTQVTVSS | low polyreactivity |
| QVQLVESGGGLVQAGVSLRLSCAASGRLFYRYAMGWYRQAPGKERELVAGISRGGSTNYADSVKGRFTISRDNAKNTVYLLMKSLKPEDSAVYYCAADAKRTLSYEFGYWGQGTQVTVSS | high polyreactivity |
| QVQLVESGGGLVQAGVSLRLSCAASGRTFEDKAMGSDRQAPGKERELVAAISSDGSTNYADSVKGRFTISRDNAKYTVYLQKYSLKPVDTAVYYCNSTVYWPYDWSTSDYWGQGTQVTVSS | low polyreactivity |
| QVQLVESGGGLVQAGVSLRLSCAASGRTFGHYTMGWYRQAPGKERELVARISRTGSTKYADSVKGPFTISRDNAKNTVYLQMNSLKPEDTAVYYCARVQAGGYGERVYAYHYDYWGQGTQVTVSS | high polyreactivity |
| QVQLVESGGGLVQAGVSLRLSCAASGRTFSYYVMGWYRQAPGKETELVAAITTRTSSTYYADSVKGRFTISRDNAKNTVYLQMNSLKPEDTAVYYCARRPRARAYNYWGQGTQVTVSS | high polyreactivity |
| QVQLVESGGGLVQAGVSLRLSCAASGRTFVSNAMGWYRQAPGKEREFVAAIRDSGGRTYYADSVKGRFTISRDNANNTVYLQMTSLIPEDTAVYYCATRGVSPSRPGYYWGQGTQVTVSS | high polyreactivity |
| QVQLVESGGGLVQAGVSLRLSCAASGRTLRRTAMGWYRQAPGTERELVAAISSIGGSTYYADSVKGRFTISRDNAKITVYLQMNSLKPEDTAVYYCAADILIYPYSYDYYWGQGTQVTVSS | high polyreactivity |
| QVQLVESGGGLVQAGVSLRLSCAASGSIFGRYAMGWYRQAPGKERELVAAINDDSGRTYYADSVKGRFTISRDNAKNTVYLQKNSLKPEDTAVYYCATGRQSEYDYWGQGTQVTVSS | high polyreactivity |
| QVQLVESGGGLVQAGVSLRLSCAASGSIFRHNAMGWYRQAPGKERELVAAINWSGGRTYYADSVKGRFTISRDNAKNTVYLHMNSLKPEDTAVYYCADPVPRSWYDYWGQGTQVTVSS | high polyreactivity |
| QVQLVESGGGLVQAGVSLRLSCAASGSIFYAYAMGWYRQAPGKERELVAVINSGGSTYYADSVKGRFRISSEYAKNTVYLQMNSLKPEDTAVYYCNGTQYRGKYDYPPPGRGYYYWGQGTHVTVSS | high polyreactivity |
| QVQLVESGGGLVQAGVSLRLSCAASGSIIWVYAMGWYRQAPGNERELVAAITSGVSTYYADSVKGRFTISRDNAKNTVYFQMNSLKPEETAVYYCAVVGGFRWIRMEYWGQGTQVTVSS | low polyreactivity |
| QVQLVESGGGLVQAGVSLRLSCAASGSILTINAMGLYRQAPGKERELVPAITSGGGSTYYADSVKGRFTISRDNAKNTVYLQMNSLKPEDTAVYYCNKVFVLPYKFVAWFDYWGQGTQVTVSS | low polyreactivity |
| QVQLVESGGGLVQAGVSLRLSCAASGSTFGRYTMGWYRQAPGKERELVAVITRGGDSTYYADSVKWRFTISRDNAKNTVYLQMNSLKPEDTAVYYCNAETNDWYYQAYLEVEYWGQGTQETVSS | low polyreactivity |
| QVQLVESGGGLVQAGVSLRLSCAASGSTFGWYAMGWYRQAPGKERELVAAISASGGSTYYADSVKGRFTISRDNAKNNVYLQMNSLKPEDTAVYYCAVRAWKFLTRYDYWGQGTKVTVSS | high polyreactivity |
| QVQLVESGGGLVQAGVSLRLSCAASGSTFTGTAMGWYIQAPGKERELVASINGSSGSTYYADSVKGRFTISRDNAKNTVYLQMNSLKPEDTAVYYCAKDSFLHFPRVGWVGLEYWGQGTQVTLSS | low polyreactivity |
| QVQLVESGGGLVQAGVSLRLSCAASGSTFTYNAKGWYRQEPGKEMELVAAIRSNGGSTYADSVKGRFTISRDNAKNTVYFQMNSMKPEDTAVYYCAARWRDYYRWGSRGGYGYWGQGTQVTVSS | high polyreactivity |
| QVQLVESGGGLVQAGVSLRLSCAASGSTFYDIAMGWYRQATGKDRELVAAISYSGASTYYADSVKGRFTISRDNAKNTVYLHINSLKPEDTAVYYCAKTFYTLYWGQGTKVTVSS | low polyreactivity |
| QVQLVESGGGLVQAGVSLRLSCAASGSTLYGYAMGWYRQAPGKERELVAAINTGGSTNYADSVKGRFTISRDNSKNTVYLQMNSLKPEDTAVYYCAASYSLTFWDKDDYWGQGTQVTVSS | low polyreactivity |
